Columns and labels:
Assay type in all cases: biochemical
caspase-8 = caspase-8 (Homo sapiens, UniProt Q14790); assay: Cleavage of substrates by purified caspase-8; details: 50 nM purified caspase-8; HeLa lysates treated with iodoacetamide, or radiolabeled IvTT substrate
Protocol: To confirm that these substrates were not cleaved by group III caspases, the substrates were incubated with 50 nM purified caspase-8. Cleavage assays were performed in HeLa cell lysates in which endogenous caspases had first been irreversibly inactivated by 1 mM iodoacetamide (4° C. for 15 min), prior to addition of 5 mM DTT to facilitate exogenous caspase-8 activity. No cleavage of topoisomerase-1, Mi-2, U1-70 kDa, PARP, Ku-70, RNA polymerase II large subunit, SRP-72, NuMA or Ki-67 occurred. Caspase-8 was indeed active in these lysates, as evidenced by robust caspase-3 cleavage products of PARP and U1-70 kDa seen when the IAA ‘poisoning’ step was omitted. Radiolabeled PMS1 and PMS2 (generated by IvTT) were also not cleaved by purified caspase-8.

granzyme B [1] = target: T1, granzyme B (Homo sapiens, UniProt P10144); assay: Susceptibility of autoantigens to cleavage by purified granzyme B (HeLa lysate immunoblot or immunoprecipitates); details: in vitro
T1 construct: Some of these preparations were used for the further purification of granzyme B (Tschopp, 1994); endogenous in cells; host or cells: YT cells (human NK cell line), cytoplasmic granules
T1 sequence (P10144 21-247): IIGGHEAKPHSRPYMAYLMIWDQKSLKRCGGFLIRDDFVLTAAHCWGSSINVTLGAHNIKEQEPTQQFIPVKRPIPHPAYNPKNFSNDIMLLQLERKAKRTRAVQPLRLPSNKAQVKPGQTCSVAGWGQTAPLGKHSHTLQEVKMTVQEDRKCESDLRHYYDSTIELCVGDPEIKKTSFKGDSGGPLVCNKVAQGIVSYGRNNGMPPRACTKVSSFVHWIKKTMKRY
Protocol: To determine whether susceptibility to direct cleavage by granzyme B was an isolated feature of PARP, NuMA and DNA-PKcs shown above, or whether it was a more general feature of autoantigens, a variety of well-defined autoantigens selected from across the spectrum of systemic autoimmune diseases were tested for susceptibility to cleavage by purified granzyume B. The efficiency of cleavage of the substrates by purified granzyme B was also noted (Table 3). Initially, a series of autoantibodies of well-defined specificity were used to immunoblot lysates of HeLa cells that had been incubated in vitro with or without granzyme B. Lysates were pre-treated with iodoacetamide (IAA) to prevent interference by endogenous caspase activity.
To perform these studies, HeLa cells were radiolabeled with [^35S] methionine/cysteine, and proteins were immunoprecipitated using human autoantibodies. Protein A-agarose beads containing washed precipitated proteins were resuspended in buffer supporting the activity of granzyme B, and incubated in the absence or presence of added purified granzyme B. Reaction products were visualized using SDS-PAGE and fluorography. To confirm the validity of this approach, several different autoantigens known to be cleaved by granzyme B, as well as several autoantigens and non-autoantigens that are not cleaved by granzyme B, were tested. Using autoantibodies that both immunoblot and immunprecipitate, the cleavage profiles obtained using granzyme B to cleave molecules in lysates (followed by detection with immunoblotting), and after immunoprecipitation (from [^35S]methionine-labeled HeLa lysate) were compared. Identical results were obtained using these 2 methods for cleaved autoantigens (topoisomerase-1, Mi-2, RNA polymerase II large subunit, Ku-70, PARP, and NOR-90), uncleaved autoantigens (Ku-80, Ro 60k), and control substrates (β-tubulin, vinculin). […] Of note, all these additional autoantigens (with the exception of RNA polymerase I) are targeted in autoimmune myositis. However, two other tRNA synthetases (threonyl tRNA synthetase and glycyl tRNA synthetase) that are also autoantigens in autoimmune myositis, were not cleaved using this approach.

granzyme B [2] = target: T1, granzyme B; assay: In vitro cleavage of substrates by purified granzyme B, kcat/Km from densitometry; details: ratio of kcat/Km
Protocol: cDNAs for caspase-3, caspase-7, NuMA and PARP were used to drive the synthesis of [^35S]methionine-labeled proteins by coupled transcription/translation in rabbit reticulocyte lysates. For all purified substrates, cleavage reactions were performed in buffer consisting of 50 mM Hepes pH 7.4, 10% sucrose and 5 mM DTT in the presence of the granzyme B concentrations indicated in FIG. 1. After incubation at 37° C. for 15 min, reactions were terminated and samples were electrophoresed on 10% (DNA-PKcs, NuMA), 12% (PARP) or 15% (caspases 3 and 7) SDS-polyacrylamide gels. Radiolabeled proteins and their fragments were visualized by fluorography. Intact and cleaved DNA-PKcs were visualized by immunoblotting with monoclonal antibody 18-2 (Casciola-Rosen et al., 1995).
Catalytic constant (kcat/km) values were calculated essentially as described (Casciola-Rosen et al., 1996). Briefly, subsaturating substrate concentrations were used in each in vitro reaction, and product appearance was assumed to be a first order process. […] Several appropriate densitometry systems are available, e.g. PDI Discovery System, with Quantity One Software, Protein Databases, Inc., (Huntington Station, N.Y.). kcat/Km values were calculated by fitting the dose-response data to the first order rate equation: percent substrate cleavage=100*((1^-e-((kcat*[E]/Km)*time)). […]

Sequence of caspase-8 (Q14790 217-374 limits assumed, species assumed): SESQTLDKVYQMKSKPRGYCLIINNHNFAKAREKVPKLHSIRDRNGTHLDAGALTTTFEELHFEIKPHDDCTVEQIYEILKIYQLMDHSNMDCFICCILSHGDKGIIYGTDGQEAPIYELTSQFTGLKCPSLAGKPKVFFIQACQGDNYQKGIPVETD
Sequence of caspase-8 (Q14790 385-479 limits assumed, species assumed): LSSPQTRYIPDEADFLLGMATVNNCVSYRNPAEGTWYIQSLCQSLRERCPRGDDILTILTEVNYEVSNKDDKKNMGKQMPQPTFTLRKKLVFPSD

Molecule | cleavage by caspase-8 (caspase-8) | susceptibility to cleavage by granzyme B (granzyme B [1]) | efficiency of granzyme B cleavage relative to caspase-3 precursor (granzyme B [2])
PMS1: autoantigen (protein) MKQLPAATVRLLSSSQIITSVVSVVKELIENSLDAGATSVDVKLENYGFDKIEVRDNGEGIKAVDAPVMAMKYYTSKINSHEDLENLTTYGFRGEALGSICCIAEVLITTRTAADNFSTQYVLDGSGHILSQKPSHLGQGTTVTALRLFKNLPVRKQFYSTAKKCKDEIKKIQDLLMSFGILKPDLRIVFVHNKAVIWQKSRVSDHKMALMSVLGTAVMNNMESFQYHSEESQIYLSGFLPKCDADHSFTSLSTPERSFIFINSRPVHQKDILKLIRHHYNLKCLKESTRLYPVFFLKIDVPTADVDVNLTPDKSQVLLQNKESVLIALENLMTTCYGPLPSTNSYENNKTDVSAADIVLSKTAETDVLFNKVESSGKNYSNVDTSVIPFQNDMHNDESGKNTDDCLNHQISIGDFGYGHCSSEISNIDKNTKNAFQDISMSNVSWENSQTEYSKTCFISSVKHTQSENGNKDHIDESGENEEEAGLENSSEISADEWSRGNILKNSVGENIEPVKILVPEKSLPCKVSNNNYPIPEQMNLNEDSCNKKSNVIDNKSGKVTAYDLLSNRVIKKPMSASALFVQDHRPQFLIENPKTSLEDATLQIEELWKTLSEEEKLKYEEKATKDLERYNSQMKRAIEQESQMSLKDGRKKIKPTSAWNLAQKHKLKTSLSNQPKLDELLQSQIEKRRSQNIKMVQIPFSMKNLKINFKKQNKVDLEEKDEPCLIHNLRFPDAWLMTSKTEVMLLNPYRVEEALLFKRLLENHKLPAEPLEKPIMLTESLFNGSHYLDVLYKMTADDQRYSGSTYLSDPRLTANGFKIKLIPGVSITENYLEIEGMANCLPFYGVADLKEILNAILNRNAKEVYECRPRKVISYLEGEAVRLSRQLPMYLSKEDIQDIIYRMKHQFGNEIKECVHGRPFFHHLTYLPETT | not cleaved | efficiently cleaved | 
Caspase-7: precursor of caspase-7 used as substrate for granzyme B (protein, UniProt P55210 2-303, looked up, pro-form, precursor of caspase-7 used as substrate for granzyme B) pro-form: ADDQGCIEEQGVEDSANEDSVDAKPDRSSFVPSLFSKKKKNVTMRSIKTTRDRVPTYQYNMNFEKLGKCIIINNKNFDKVTGMGVRNGTDKDAEALFKCFRSLGFDVIVYNDCSCAKMQDLLKKASEEDHTNAACFACILLSHGEENVIYGKDGVTPIKDLTAHFRGDRCKTLLEKPKLFFIQACRGTELDDGIQADSGPINDTDANPRYKIPVEADFLFAYSTVPGYYSWRSPGRGSWFVQALCSILEEHGKDLEIMQILTRVNDRVARHFESQSDDPHFHEKKQIPCVVSMLTKELYFSQ |  |  | approximately 6 fold
SRP-72: autoantigen (protein) ASGGSGGVSVPALWSEVNRYGQNGDFTRALKTVNKILQINKDDVTALHCKVVCLIQNGSFKEALNVINTHTKVLANNSLSFEKAYCEYRLNRIENALKTIESANQQTDKLKELYGQVLYRLERYDECLAVYRDLVRNSQDDYDEERKTNLSAVVAAQSNWEKVVPENLGLQEGTHELCYNTACALIGQGQLNQAMKILQKAEDLCRRSLSEDTDGTEEDPQAELAIIHGQMAYILQLQGRTEEALQLYNQIIKLKPTDVGLLAVIANNIITINKDQNVFDSKKKVKLTNAEGVEFKLSKKQLQAIEFNKALLAMYTNQAEQCRKISASLQSQSPEHLLPVLIQAAQLCREKQHTKAIELLQEFSDQHPENAAEIKLTMAQLKISQGNISKACLILRSIEELKHKPGMVSALVTMYSHEEDIDSAIEVFTQAIQWYQNHQPKSPAHLSLIREAANFKLKYGRKKEAISDLQQLWKQNPKDIHTLAQLISAYSLVDPEKAKALSKHLPSSDSMSLKVDVEALENSAGATYIRKKGGKVTGDSQPKEQGQGDLKKKKKKKKGKLPKNYDPKVTPDPERWLPMRERSYYRGRKKGKKKDQIGKGTQGATAGASSELDASKTVSSPPTSPRPGSAATVSASTSNIIPPRHQKPAGAPATKKKQQQKKKKGGKGGW | No cleavage | efficiently cleaved | 

Reference: patent US6855515B1, “Autoantigenic fragments, methods and assays” (Merck & Co., Inc., priority 1998, dated 2005)
